The values below come from patent US6613536B1, “Synthetic peptides and pharmaceutical compositions comprising them for the treatment of systemic lupus erythematosus” (Yeda Research and Development Co. Ltd., priority 1995, dated 2003).

Experiment [1] addresses MHC class II products (H-2d) on splenic antigen-presenting cells of BALB/c mice (mouse) (UniProt P04228). The experiment can be described thus: flow cytometry, inhibition of binding of biotinylated peptide Ia (competitor) to BALB/c APC. (In general: In flow cytometry, cells or beads pass a laser one at a time.)
Experiment [2] addresses MHC class II products (H-2b) on splenic antigen-presenting cells of C57BL/6 mice (mouse) (UniProt P14434). The experiment can be described thus: flow cytometry, inhibition of binding of biotinylated peptide Ia (competitor) to C57BL/6 APC.
Experiment [3] concerns the target MHC class II products (H-2b) on splenic antigen-presenting cells of C3H.SW mice (mouse) (UniProt P14434). The experiment can be described thus: flow cytometry, inhibition of binding of biotinylated peptide IIIa (competitor) to C3H.SW APC.
Experiment [4] shares this target. The experiment in a line: flow cytometry, inhibition of binding of biotinylated peptide Ia (competitor) to C3H.SW APC.
The target of experiment [5] is MHC class II products (H-2b) on splenic antigen-presenting cells of C57BL/6 mice (mouse) (UniProt P14434). The experiment can be described thus: flow cytometry, inhibition of binding of biotinylated peptide IIIa (competitor) to C57BL/6 APC.
Experiment [6] deals with MHC class II products (H-2d) on splenic antigen-presenting cells of BALB/c mice (mouse) (UniProt P04228). The experiment can be described thus: flow cytometry, inhibition of binding of biotinylated peptide IIIa (competitor) to BALB/c APC.
The subject of experiment [7] is antibodies in sera of SLE patients and healthy controls. The experiment in a line: Antibodies in human sera binding coated peptides or mAb 5G12 (ELISA). The settings on record: 32 SLE patients in comparison to healthy controls; plates coated 10 μg/ml. As to the method:
Human SLE patients (32 patients) were bled and their sera were tested by ELISA for their ability to bind the peptides Ia, IIa and IIIa, a control peptide p195-212 (a myasthogenic peptide described in PCT publication No. WO 94/00148) or mAb 5G12.
Detection of the antibodies was conducted on plates that were coated with 10 μg/ml of peptides Ia, IIa, IIIa or p195-212 or mAb 5G12, in PBS for 2 hr, washed and blocked with 1% ovalbumin in PBS for an additional 2 hr. ELISA was continued as described after blockage in Example 2 above, using goat anti-human IgG polyclonal antibody conjugated to peroxidase.
(In general: In an ELISA, binding on a coated surface is turned into a signal by an enzyme label.)

Experiment [8] relates to peripheral blood lymphocytes (PBL). The experiment in a line: IL-2 production by PBL of SLE patients and healthy controls. The experiment is classed as cell-based, human. Conditions: sample at 24 hr. As to the method:
(§1) PBL from human SLE patients and of the appropriate control donors (2×10^5/well) were cultured in microtiter plates in enriched medium containing 10% pooled AB sera in the presence of the human or mouse monoclonal 16/6 Id antibody, in the presence of peptides of the invention or in the presence of phytohemagglutinin (PHA). The rate of proliferation was evaluated by the incorporation of ^3[H]-thymidine in the cell culture. Non-relevant peptides were used as specificity controls. Antigen and mitogen-stimulated cytokine production was quantitated in the supernatants of the above cultures using either the cytokine-dependent lines or the appropriate pairs of antibodies in ELISA assays. Inhibition of the proliferative responses was performed in vitro by adding increasing doses of the tested peptide analogs into the proliferative culture mixtures.
PBL were isolated from blood of SLE patients or healthy controls using ficol gradient, and were incubated as in Example 13. A sample of 50 μl was removed 24 hr after the assay was started, and incubated in the presence of IL-2 sensitive cells (CTLD) for 24 hr, after which ^3H-thymidine was added for 16 hr, and the plates were harvested and counted on a beta counter.

In the next experiment the test system is BALB/c and SJL mice. The experiment in a line: Clinical manifestations of SLE in immunized mice (WBC, proteinuria, kidney analysis). The experiment is classed as in vivo, mouse. The procedure: The erythrocyte sedimentation rate was determined by diluting the heparinized blood in PBS at a ratio of 1:1. The diluted blood was then passed to a microsampling pipette and the sedimentation was measured 6 hours later. White blood cell counts were determined after the hemolysis of heparinized blood. Proteinuria was measured in a semi-quantitative manner, using a Combistix kit (Ames, Stoke Poges, Slough, U.K.). Immunohistology was performed by incubation of fixed frozen cryostat sections with FITC-labeled antibodies to mouse Ig. Staining was visualized via use of a fluorescent microscope.
BALBtc and SJL mice were immunized with mAb 5G12 or with peptides Ia and IIIa, and five months later were checked by two criteria for manifestation of SLE: white blood cell count (WBC) and proteinuria.
(i) White blood cell count (WBC): The mice were bled, their blood was diluted 1:10 with 1% (vol/vol) acetic acid in order to eliminate the red blood cells, and white blood cells were counted under a normal light microscope.
Proteinuria: The urine of the mice was tested using combisticks (Combistix Kit, Ames) for the presence of protein.

For experiment [9], the system named is peripheral blood lymphocytes (PBL). The experiment in a line: Proliferation of PBL from SLE patients and healthy controls. The experiment is classed as cell-based, human. As to the method: as §1
Peripheral blood lymphocytes (PBL) were isolated from the blood of SLE patients or healthy controls using ficol gradient. Thereafter, the PBL were incubated in the presence of different concentrations of the peptides Ia, IIa or IIIa, or the human 16/6 Id mAb for 24 hr, when a sample was taken for IL-2 measurement. The assay was continued for a total of 7 days, and ^3H-thymidine was added for the last 16 hr. Proliferation was detected by reading the amount of radioactivity incorporated into the DNA of the cells.

For experiment [10], the target named is MHC class II products (H-2s) on splenic antigen-presenting cells of SJL mice (mouse). The experiment in a line: flow cytometry, inhibition of binding of biotinylated peptide IIIa (competitor) to SJL APC.
Experiment [11] has the same target. The experiment in a line: flow cytometry, inhibition of binding of biotinylated peptide Ia (competitor) to SJL APC.

As for “34-5-3 (anti-I-A^b, Pharmingen) (antibody)”, the % inhibition (usually the percentage by which the read-out fell short of the control) in experiment [1] amounted to 0%; in experiment [2] it was 82%; in experiment [3], 84.4%; in [4] it was 60%; in [5], 59.3%; in experiment [6] it was 0%.
With “EINPSTGGTTYNQKFKAKAT (EINPSTGGTTYNQKFKAKAT) [peptide IIa, based on the CDR2 region of the VH chain of mAb 5G12]”, the “levels of serum antibodies that bind the coated peptide or mAb” value in experiment [7] was “significantly higher levels of antibodies”. The entries for the “IL-2 production by PBL, actual number of responders” value in experiment [8] (SLE patients) and in experiment [8] (healthy controls) were 3/32 and 8/25, respectively. In addition, the “IL-2 production by PBL, percentage of responders” value is 9% in [8] (SLE patients) and 32% in experiment [8] (healthy controls). For the same substance, the “protein level in urine (in words)” value is listed as “smaller increase in protein level” with BALB/c and SJL mice (BALB/c mice); “High levels of protein” in the experiment on BALB/c and SJL mice (SJL mice). Further, the “proliferation of PBL, actual number of responders” value was 3/32 in [9] (SLE patients) and 7/25 in [9] (healthy controls). Moreover, the “proliferation of PBL, percentage of responders” value in experiment [9] (SLE patients) amounted to 9%; in experiment [9] (healthy controls) it was 28%.
“10.3.6.2 (anti-I-A^s (Zamvil et al., 1988)) (antibody)”: the % inhibition in [10] was found to be 92.8%; in experiment [11], 100%.
As to “MKD6 (anti-I-A^d, Beckton-Dickinson) (antibody)”, the % inhibition was 76.7% in experiment [1]; 0% in experiment [2]; 25% in experiment [3]; 0% in experiment [4]; 0% in experiment [10]; 0% in [5]. In addition, the % inhibition in experiment [11] was found to be 0%; in experiment [6], 100%.
